According to US20220177587A1, “METHODS AND USES OF VARIANT CD80 FUSION PROTEINS AND RELATED CONSTRUCTS” (Alpine Immune Sciences, Inc., priority 2018, published 2022):

Experiments:
CD28 (human) [1] = target: CD28 (human) (UniProt P10747); assay: flow cytometry, transfected Expi293F cells
human CTLA-4 (human) [2] = target: human CTLA-4 (human) (UniProt P16410); assay: flow cytometry, transfected Expi293F cells
human PD-L1 (human) [3] = target: human PD-L1 (human) (UniProt Q9NZQ7); assay: flow cytometry, transfected Expi293F cells
Sequence of human PD-L1 (human) (Q9NZQ7 19-290): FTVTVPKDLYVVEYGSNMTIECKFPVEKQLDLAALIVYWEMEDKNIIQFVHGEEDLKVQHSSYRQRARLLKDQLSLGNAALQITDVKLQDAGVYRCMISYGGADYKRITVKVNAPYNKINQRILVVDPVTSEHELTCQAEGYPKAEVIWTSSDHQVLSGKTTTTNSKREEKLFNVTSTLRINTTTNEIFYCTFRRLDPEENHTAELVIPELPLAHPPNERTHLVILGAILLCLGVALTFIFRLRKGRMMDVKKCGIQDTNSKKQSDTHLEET

CD28 (human) [4] = target: CD28 (human) (UniProt P10747); assay: flow cytometry, Jurkat cells (CD28)
human CTLA-4 (human) [5] = target: human CTLA-4 (human) (UniProt P16410); assay: flow cytometry, CHO cells stably expressing CTLA4
human PD-L1 (human) [6] = target: human PD-L1 (human) (UniProt Q9NZQ7); assay: flow cytometry, CHO cells stably expressing PD-L1
human PD-L1 (human) [7] = target: human PD-L1 (human) (UniProt Q9NZQ7); assay: flow cytometry, MFI on PD-L1 cells over MFI on CD28 cells

Sequence of human CTLA-4 (human) (P16410 36-223): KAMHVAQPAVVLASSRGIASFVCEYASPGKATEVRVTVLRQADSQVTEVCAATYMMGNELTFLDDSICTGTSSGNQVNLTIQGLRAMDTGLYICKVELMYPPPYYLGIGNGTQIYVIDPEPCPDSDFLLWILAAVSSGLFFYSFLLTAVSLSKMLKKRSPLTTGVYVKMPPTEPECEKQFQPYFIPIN

Row | MFI (CD28 (human) [1]) | parental ratio (CD28 (human) [1]) | MFI (human CTLA-4 (human) [2]) | parental ratio (human CTLA-4 (human) [2]) | MFI (human PD-L1 (human) [3]) | parental ratio (human PD-L1 (human) [3]) | Fold change to WT CD80 (CD28 (human) [4]) [fold] | MFI at 33.3 nM (CD28 (human) [4]) [MFI] | Fold change to WT CD80 (human CTLA-4 (human) [5]) [fold] | MFI at 33.3 nM (human CTLA-4 (human) [5]) [MFI] | Fold change to WT CD80 (human PD-L1 (human) [6]) [fold] | MFI at 33.3 nM (human PD-L1 (human) [6]) [MFI] | Ratio of PDL1:CD28 (human PD-L1 (human) [7]) | Binder
1 | 2740 | 0.06 | 2490 | 0.01 | 158000 | 0.06 | – | – | – | – | – | – | – | CD80 R29D/Y31L/Q33H/K36G/M38I/T41A/M43R/M47T/E81V/L85R/K89N/A91T/F92P/K93V/R94L/I118V/T120S/T130A/K169E/M174T ECD-Fc (Fc fusion) VIHVTKEVKEVATLSCGHNVSVEELAQTDILWHKEGKIVLAMRSGDTNIWPEYKNRTIFDITNNLSIVILALRPSDEGTYVCVVRKYENDTPVLEHLAEVTLSVKADFPTPSISDFEVPSSNIRRIICSASGGFPEPHLSWLENGEELNAINTTVSQDPETELYAVSSELDFNTTTNHSFMCLIKYGHLRVNQTFNWNTTKQEHFPDN
2 | – | – | – | – | – | – | 38.3 | 1680 | 10.2 | 13900 | 160 | 6990 | 4.2 | variant CD80 IgV-Fc A26E/E35D/V68M/D90G (Fc fusion) VIHVTKEVKEVATLSCGHNVSVEELEQTRIYWQKDKKMVLTMMSGDMNIWPEYKNRTIFDITNNLSIMILALRPSDEGTYECVVLKYEKGAFKREHLAEVTLSVKAD
3 | – | – | – | – | – | – | 65.1 | 2860 | 17.3 | 23500 | 205 | 8930 | 3.1 | variant CD80 IgV-Fc H18Y/A26E/M47L/D90G (Fc fusion) VIHVTKEVKEVATLSCGYNVSVEELEQTRIYWQKEKKMVLTMMSGDLNIWPEYKNRTIFDITNNLSIVILALRPSDEGTYECVVLKYEKGAFKREHLAEVTLSVKAD
4 | – | – | – | – | – | – | 35.3 | 1550 | 13.4 | 18200 | 220 | 9580 | 6.2 | variant CD80 IgV-Fc A26E/E35D/M47L/D90G (Fc fusion) VIHVTKEVKEVATLSCGHNVSVEELEQTRIYWQKDKKMVLTMMSGDLNIWPEYKNRTIFDITNNLSIVILALRPSDEGTYECVVLKYEKGAFKREHLAEVTLSVKAD
5 | – | – | – | – | – | – | 86.4 | 3800 | 14 | 19000 | 499 | 21800 | 5.7 | variant CD80 IgV-Fc H18Y/M47L/V68M/D90G (Fc fusion) VIHVTKEVKEVATLSCGYNVSVEELAQTRIYWQKEKKMVLTMMSGDLNIWPEYKNRTIFDITNNLSIMILALRPSDEGTYECVVLKYEKGAFKREHLAEVTLSVKAD
6 | – | – | – | – | – | – | 2.3 | 99.4 | 8.3 | 11300 | 158 | 6870 | 69.1 | variant CD80 IgV-Fc H18Y/A26E/V68M/A71G (Fc fusion) VIHVTKEVKEVATLSCGYNVSVEELEQTRIYWQKEKKMVLTMMSGDMNIWPEYKNRTIFDITNNLSIMILGLRPSDEGTYECVVLKYEKDAFKREHLAEVTLSVKAD
7 | – | – | – | – | – | – | 54.5 | 2390 | 19 | 25800 | 295 | 12800 | 5.4 | variant CD80 IgV-Fc H18Y/A26E/V68M/D90G (Fc fusion) VIHVTKEVKEVATLSCGYNVSVEELEQTRIYWQKEKKMVLTMMSGDMNIWPEYKNRTIFDITNNLSIMILALRPSDEGTYECVVLKYEKGAFKREHLAEVTLSVKAD
8 | – | – | – | – | – | – | 13.9 | 611 | 16.3 | 22100 | 357 | 15600 | 25.5 | variant CD80 IgV-Fc H18Y/A26E/M47L/A71G (Fc fusion) VIHVTKEVKEVATLSCGYNVSVEELEQTRIYWQKEKKMVLTMMSGDLNIWPEYKNRTIFDITNNLSIVILGLRPSDEGTYECVVLKYEKDAFKREHLAEVTLSVKAD
